Assay results taken from article PMC2268108.

Target: T1, KcsA K+ channel, wild type, P0A334
T1 chain: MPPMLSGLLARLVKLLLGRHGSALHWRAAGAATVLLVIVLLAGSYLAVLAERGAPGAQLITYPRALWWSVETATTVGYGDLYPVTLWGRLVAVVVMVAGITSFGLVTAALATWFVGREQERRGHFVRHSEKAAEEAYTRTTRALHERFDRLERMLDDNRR
Assay: SDS-PAGE of the tetramer
Settings: remark: other sources report otherwise

stoichiometry N: 4
B1: KcsA K+ channel, wild type, P0A334 1-160 (natural protein)
chain: T1 chain
